Measured values published in patent US20220268787A1 (JW BIOSCIENCE, published 2022).

How the values were obtained:
Assay in all cases: indirect ELISA, antigen coated at 1 µg/ml
[1] = molecular target: T1, CRS (cysteinyl-tRNA synthetase) (UniProt P49589 1-748, limits assumed)
T1 sequence (looked up): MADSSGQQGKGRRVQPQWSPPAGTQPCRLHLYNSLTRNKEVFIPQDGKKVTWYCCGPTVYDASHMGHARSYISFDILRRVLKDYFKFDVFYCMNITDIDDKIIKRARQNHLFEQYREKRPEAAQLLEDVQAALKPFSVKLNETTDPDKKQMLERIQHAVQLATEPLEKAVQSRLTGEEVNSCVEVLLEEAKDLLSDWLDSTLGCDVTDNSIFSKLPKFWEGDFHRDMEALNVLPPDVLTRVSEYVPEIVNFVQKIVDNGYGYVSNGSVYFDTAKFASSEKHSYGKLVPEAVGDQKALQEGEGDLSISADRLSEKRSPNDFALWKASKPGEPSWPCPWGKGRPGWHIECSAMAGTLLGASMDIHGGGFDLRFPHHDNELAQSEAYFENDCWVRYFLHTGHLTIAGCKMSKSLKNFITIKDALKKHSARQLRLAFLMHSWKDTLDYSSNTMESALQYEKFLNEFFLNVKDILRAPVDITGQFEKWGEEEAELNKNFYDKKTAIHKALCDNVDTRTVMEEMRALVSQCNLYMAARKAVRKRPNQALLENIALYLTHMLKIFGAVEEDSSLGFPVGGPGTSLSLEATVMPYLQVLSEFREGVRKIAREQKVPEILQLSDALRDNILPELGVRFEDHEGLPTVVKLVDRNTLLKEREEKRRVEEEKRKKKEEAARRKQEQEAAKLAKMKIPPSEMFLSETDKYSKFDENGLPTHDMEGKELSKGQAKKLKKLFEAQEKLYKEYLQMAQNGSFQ

[2] = molecular target: KRS (lysyl tRNA synthetase) (UniProt Q15046 1-597, limits assumed)
Chain of KRS (lysyl tRNA synthetase) (Q15046 whole entry): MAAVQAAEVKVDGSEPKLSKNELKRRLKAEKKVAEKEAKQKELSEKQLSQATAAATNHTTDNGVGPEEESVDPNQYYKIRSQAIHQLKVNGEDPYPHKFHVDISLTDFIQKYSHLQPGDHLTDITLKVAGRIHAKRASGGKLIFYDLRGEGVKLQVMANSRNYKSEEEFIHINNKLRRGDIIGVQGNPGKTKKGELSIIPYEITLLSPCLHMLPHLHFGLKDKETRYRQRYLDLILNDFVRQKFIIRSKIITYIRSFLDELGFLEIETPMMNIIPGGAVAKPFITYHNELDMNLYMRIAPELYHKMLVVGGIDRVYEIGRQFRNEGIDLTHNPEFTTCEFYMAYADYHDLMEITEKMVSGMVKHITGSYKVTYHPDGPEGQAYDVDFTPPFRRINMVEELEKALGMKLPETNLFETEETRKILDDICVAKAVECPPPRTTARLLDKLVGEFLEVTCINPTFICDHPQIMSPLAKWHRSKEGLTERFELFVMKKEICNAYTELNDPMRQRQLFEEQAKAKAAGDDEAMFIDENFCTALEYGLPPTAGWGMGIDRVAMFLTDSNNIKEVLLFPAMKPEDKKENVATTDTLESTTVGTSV

[3] = molecular target: T2, AIMP1 (aminoacyl tRNA synthase complex-interacting multifunctional protein 1) (UniProt Q12904 1-312, limits assumed)
T2 construct: also called p43
T2 sequence (looked up): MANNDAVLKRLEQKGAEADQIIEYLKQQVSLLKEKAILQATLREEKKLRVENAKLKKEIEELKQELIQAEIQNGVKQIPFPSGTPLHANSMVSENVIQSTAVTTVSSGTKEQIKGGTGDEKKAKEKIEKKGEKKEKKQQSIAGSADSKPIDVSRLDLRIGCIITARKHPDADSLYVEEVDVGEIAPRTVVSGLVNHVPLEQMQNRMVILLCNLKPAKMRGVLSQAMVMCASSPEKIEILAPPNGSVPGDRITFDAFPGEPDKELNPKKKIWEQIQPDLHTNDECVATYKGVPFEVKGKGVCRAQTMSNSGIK

[4] = molecular target: T3, GRS (glycyl tRNA synthetase) (UniProt P41250 55-739, limits assumed)
T3 sequence (looked up): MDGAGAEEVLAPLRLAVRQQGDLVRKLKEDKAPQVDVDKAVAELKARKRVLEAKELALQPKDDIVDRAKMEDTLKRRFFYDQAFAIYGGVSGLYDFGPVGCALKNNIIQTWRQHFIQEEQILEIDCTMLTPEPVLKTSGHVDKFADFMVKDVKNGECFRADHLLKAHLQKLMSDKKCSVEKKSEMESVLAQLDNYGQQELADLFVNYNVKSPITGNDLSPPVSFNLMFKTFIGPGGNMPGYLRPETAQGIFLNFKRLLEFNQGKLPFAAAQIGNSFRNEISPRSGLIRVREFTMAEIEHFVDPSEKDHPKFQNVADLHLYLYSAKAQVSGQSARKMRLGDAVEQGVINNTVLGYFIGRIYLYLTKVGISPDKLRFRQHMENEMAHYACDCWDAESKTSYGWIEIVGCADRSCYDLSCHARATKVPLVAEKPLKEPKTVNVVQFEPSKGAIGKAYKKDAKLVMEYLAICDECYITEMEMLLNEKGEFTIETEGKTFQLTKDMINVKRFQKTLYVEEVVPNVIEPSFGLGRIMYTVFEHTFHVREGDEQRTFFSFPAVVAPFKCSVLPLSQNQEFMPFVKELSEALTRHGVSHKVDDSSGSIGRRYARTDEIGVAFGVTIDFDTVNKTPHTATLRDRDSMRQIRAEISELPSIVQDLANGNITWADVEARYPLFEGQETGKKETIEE

Measured: binding result

B1: 4D10G6 monoclonal antibody (antibody, V domains shown)
VH: EFQLQQSGPELVKPGASVKISCKASGYAFIDYNMNWVKQSNGKSLEWIGVINPNYGTIRYNQKFKGKATLTVDQSSSTAYMQLNSLTSEDSAVYYCAGLLRGYYAMDYWGQGTSVTVSS
VL: QAVVTQESALTTSPGETVTLTCRSSTGAVTTSNYANWVQEKPDHLFTGLIGGTNNRAPGVPARFSGSLIGDKAALTITGAQTEDEAIYFCVLWYSNHWVFGGGTKLTVL
notes: Mouse hybridoma monoclonal (Balb/c), purified from ascites on Protein A or G beads; also called the antibody according to the present invention
no binding (tested: 500 ng/ml): all assays above
